Test results published in article PMC7269035.

Biological target: LARP1 DM15 F844Y/R847E (FYRE) (Homo sapiens, UniProt Q6PKG0-3 796-946, F844Y;R847E)
Assay: EMSA

B1: m7Gppp-non-TOP (+1G) RPS6 20-mer (ssRNA)
RNA: GCUCUUUUCCGUGGCGCCUC
modifications: 5' m7Gppp cap (vaccinia capping enzyme)
- binding result: binds
